Measured values from PMC4521584.

Substrate: Nc1ncnc2c1ncn2[C@@H]1O[C@H](COP(=O)(O)OP(=O)(O)OP(=O)(O)O)[C@@H](O)[C@H]1O
Test: ATPase assay coupled to NADH oxidation
Format: biochemical, Escherichia coli
Conditions: 5 μM MutS, 3.125-500 μM ATP

Row | Protein | Km | kcat
1 | WT MutS (Escherichia coli K-12) (protein, full-length MutS from mutS gene in pET-3D, recombinant, purified; homodimer (can form tetramers)) MSAIENFDAHTPMMQQYLRLKAQHPEILLFYRMGDFYELFYDDAKRASQLLDISLTKRGASAGEPIPMAGIPYHAVENYLAKLVNQGESVAICEQIGDPATSKGPVERKVVRIVTPGTISDEALLQERQDNLLAAIWQDSKGFGYATLDISSGRFRLSEPADRETMAAELQRTNPAELLYAEDFAEMSLIEGRRGLRRRPLWEFEIDTARQQLNLQFGTRDLVGFGVENAPRGLCAAGCLLQYAKDTQRTTLPHIRSITMEREQDSIIMDAATRRNLEITQNLAGGAENTLASVLDCTVTPMGSRMLKRWLHMPVRDTRVLLERQQTIGALQDFTAGLQPVLRQVGDLERILARLALRTARPRDLARMRHAFQQLPELRAQLETVDSAPVQALREKMGEFAELRDLLERAIIDTPPVLVRDGGVIASGYNEELDEWRALADGATDYLERLEVRERERTGLDTLKVGFNAVHGYYIQISRGQSHLAPINYMRRQTLKNAERYIIPELKEYEDKVLTSKGKALALEKQLYEELFDLLLPHLEALQQSASALAELDVLVNLAERAYTLNYTCPTFIDKPGIRITEGRHPVVEQVLNEPFIANPLNLSPQRRMLIITGPNMGGKSTYMRQTALIALMAYIGSYVPAQKVEIGPIDRIFTRVGAADDLASGRSTFMVEMTETANILHNATEYSLVLMDEIGRGTSTYDGLSLAWACAENLANKIKALTLFATHYFELTQLPEKMEGVANVHLDALEHGDTIAFMHSVQDGAASKSYGLAVAALAGVPKEVIKRARQKLRELESISPNAAATQVDGTQMSLLSVPEETSPAVEALENLDPDSLTPRQALEWIYRLKSLV | 8.1 ± 0.7 µM | 0.138 ± 0.0033 s⁻¹
2 | WT MutS (Escherichia coli K-12; I597A/M759D/P595A) (protein, full-length MutS from mutS gene in pET-3D, recombinant, purified; homodimer (can form tetramers)) MSAIENFDAHTPMMQQYLRLKAQHPEILLFYRMGDFYELFYDDAKRASQLLDISLTKRGASAGEPIPMAGIPYHAVENYLAKLVNQGESVAICEQIGDPATSKGPVERKVVRIVTPGTISDEALLQERQDNLLAAIWQDSKGFGYATLDISSGRFRLSEPADRETMAAELQRTNPAELLYAEDFAEMSLIEGRRGLRRRPLWEFEIDTARQQLNLQFGTRDLVGFGVENAPRGLCAAGCLLQYAKDTQRTTLPHIRSITMEREQDSIIMDAATRRNLEITQNLAGGAENTLASVLDCTVTPMGSRMLKRWLHMPVRDTRVLLERQQTIGALQDFTAGLQPVLRQVGDLERILARLALRTARPRDLARMRHAFQQLPELRAQLETVDSAPVQALREKMGEFAELRDLLERAIIDTPPVLVRDGGVIASGYNEELDEWRALADGATDYLERLEVRERERTGLDTLKVGFNAVHGYYIQISRGQSHLAPINYMRRQTLKNAERYIIPELKEYEDKVLTSKGKALALEKQLYEELFDLLLPHLEALQQSASALAELDVLVNLAERAYTLNYTCPTFIDKPGIRITEGRHPVVEQVLNEAFAANPLNLSPQRRMLIITGPNMGGKSTYMRQTALIALMAYIGSYVPAQKVEIGPIDRIFTRVGAADDLASGRSTFMVEMTETANILHNATEYSLVLMDEIGRGTSTYDGLSLAWACAENLANKIKALTLFATHYFELTQLPEKMEGVANVHLDALEHGDTIAFDHSVQDGAASKSYGLAVAALAGVPKEVIKRARQKLRELESISPNAAATQVDGTQMSLLSVPEETSPAVEALENLDPDSLTPRQALEWIYRLKSLV | 9.5 ± 1 µM | 0.0633 ± 0.0017 s⁻¹
